Data on two substances can be found in patent US20100035825A1.

In test [1] the target is purified recombinant procaspase 1 (human, Alexis Biochemicals) (human) (UniProt P29466). Put plainly: co-immunoprecipitation of purified recombinant proteins (C/EBPβ peptides 200 µM), immunoblot, densitometry; reference C/EBPβ 216-253-HA-Ala217.
The target in test [2] is purified recombinant procaspase 8 (human, Alexis Biochemicals) (human) (UniProt Q14790). The test is described as above.
Test [3] addresses purified recombinant procaspase 1 (human, Alexis Biochemicals) (human) (UniProt P29466). Put plainly: co-immunoprecipitation of purified recombinant proteins (C/EBPβ peptides 200 µM), immunoblot, densitometry; reference C/EBPβ-HA-Ala217.

Sequence of purified recombinant procaspase 8 (human, Alexis Biochemicals) (human) (Q14790 217-479 limits assumed): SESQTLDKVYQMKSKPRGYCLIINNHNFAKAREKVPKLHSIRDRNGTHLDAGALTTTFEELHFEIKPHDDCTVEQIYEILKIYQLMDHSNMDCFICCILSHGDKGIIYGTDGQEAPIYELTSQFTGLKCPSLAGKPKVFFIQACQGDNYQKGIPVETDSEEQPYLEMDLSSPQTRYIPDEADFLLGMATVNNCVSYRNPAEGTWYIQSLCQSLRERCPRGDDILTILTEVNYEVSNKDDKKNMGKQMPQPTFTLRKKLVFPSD

For the substance C/EBPβ 216-253-HA-Glu^217, the fold more co-immunoprecipitated than the Ala^217 peptides (densitometry) in test [1] came out at 7 fold; in test [2], 12 fold. As for “C/EBPβ-HA-Glu^217 (from UniProt P28033 1-296)”, the fold more co-immunoprecipitated than the Ala^217 peptides (densitometry) in test [3] turned out to be 7 fold.
